Experiments:
Assay in all cases: ELISA: Fc-His proteins (1 nM) captured on anti-6-His antibody, antibody A 10 µg/mL with human IgG 100 µg/mL, HRP anti-mouse IgG, OD450 as % of mouse EphA4-Fc-His
[1] = molecular target: T1, mouse EphA10 extracellular region-Fc-His protein (mouse; human, UniProt Q8BYG9 23-565)
T1 construct: extracellular domain; not shown: Fc region of human IgG1; histidine tag
T1 sequence (looked up): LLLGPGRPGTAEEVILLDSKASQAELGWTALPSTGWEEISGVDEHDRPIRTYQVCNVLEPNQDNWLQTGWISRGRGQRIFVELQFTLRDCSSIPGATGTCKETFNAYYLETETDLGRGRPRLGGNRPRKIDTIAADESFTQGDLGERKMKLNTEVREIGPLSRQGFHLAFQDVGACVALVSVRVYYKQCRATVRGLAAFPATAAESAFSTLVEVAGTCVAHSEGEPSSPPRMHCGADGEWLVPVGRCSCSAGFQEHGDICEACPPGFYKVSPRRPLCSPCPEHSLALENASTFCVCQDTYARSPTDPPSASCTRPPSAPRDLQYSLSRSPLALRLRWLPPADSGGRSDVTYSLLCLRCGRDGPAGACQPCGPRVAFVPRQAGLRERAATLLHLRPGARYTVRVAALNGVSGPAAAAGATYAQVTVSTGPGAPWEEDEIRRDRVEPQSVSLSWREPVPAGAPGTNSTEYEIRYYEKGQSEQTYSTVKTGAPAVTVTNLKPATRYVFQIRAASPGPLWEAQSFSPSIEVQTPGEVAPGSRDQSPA
Protocol: (§1) Rabbit anti-6-His antibodies (Bethyl Laboratories) were coated onto the wells of a 96-well plate (Nunc). After incubating at 4° C. overnight, the wells were blocked at room temperature for 1 hour by 1% Block Ace (DS Pharma Biomedical). After washing 3 times with 0.05% Tween 20/PBS (Thermo […]), each Eph receptor of mouse extracellular region-Fc-His protein (final concentration 1 nM) was seeded into each well, and incubated at room temperature for 1 hour. After washing 3 times, human IgG solution (100 μg/mL, Sigma) and antibody A (10 μg/mL) were supplemented to the wells, and incubated at room temperature for 1 hour. Horseradish peroxidase-labeled donkey anti-mouse IgG antibody (Jackson ImmunoResearch Laboratories) was added, and incubated at room temperature for 1 hour. After washing 3 times, TMBZ (3,3′,5,5′-tetramethylbenzidine, Sigma) solution was added to the wells, and upon confirmation of modest coloring, an equal amount of quenching solution (1 N H₂SO₄, Wako Pure Chemicals) was added to the wells, and absorbance at 450 nm was read by a microplate reader (PerkinElmer).

[2] = molecular target: T2, mouse EphA7 extracellular region-Fc-His protein (mouse; human, UniProt Q61772 28-555)
T2 construct: extracellular domain; not shown: Fc region of human IgG1; histidine tag
T2 sequence (looked up): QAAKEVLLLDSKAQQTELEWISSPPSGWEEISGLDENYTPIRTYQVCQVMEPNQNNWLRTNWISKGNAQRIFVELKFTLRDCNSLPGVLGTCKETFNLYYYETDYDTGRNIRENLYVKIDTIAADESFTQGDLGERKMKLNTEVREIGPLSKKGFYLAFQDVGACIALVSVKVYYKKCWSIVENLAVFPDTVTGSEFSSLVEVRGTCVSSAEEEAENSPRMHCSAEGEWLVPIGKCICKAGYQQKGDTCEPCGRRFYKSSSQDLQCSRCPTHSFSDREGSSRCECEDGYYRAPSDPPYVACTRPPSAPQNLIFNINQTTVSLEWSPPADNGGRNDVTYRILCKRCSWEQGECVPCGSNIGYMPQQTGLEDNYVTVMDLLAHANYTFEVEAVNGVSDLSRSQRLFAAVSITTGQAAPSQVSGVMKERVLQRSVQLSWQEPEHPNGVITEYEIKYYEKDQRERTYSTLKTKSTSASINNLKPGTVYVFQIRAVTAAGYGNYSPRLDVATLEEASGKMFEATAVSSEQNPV
Protocol: as §1

[3] = molecular target: T3, mouse EphA1 extracellular region-Fc-His protein (mouse; human, UniProt Q60750 27-548)
T3 construct: extracellular domain; not shown: Fc region of human IgG1; histidine tag
T3 sequence (looked up): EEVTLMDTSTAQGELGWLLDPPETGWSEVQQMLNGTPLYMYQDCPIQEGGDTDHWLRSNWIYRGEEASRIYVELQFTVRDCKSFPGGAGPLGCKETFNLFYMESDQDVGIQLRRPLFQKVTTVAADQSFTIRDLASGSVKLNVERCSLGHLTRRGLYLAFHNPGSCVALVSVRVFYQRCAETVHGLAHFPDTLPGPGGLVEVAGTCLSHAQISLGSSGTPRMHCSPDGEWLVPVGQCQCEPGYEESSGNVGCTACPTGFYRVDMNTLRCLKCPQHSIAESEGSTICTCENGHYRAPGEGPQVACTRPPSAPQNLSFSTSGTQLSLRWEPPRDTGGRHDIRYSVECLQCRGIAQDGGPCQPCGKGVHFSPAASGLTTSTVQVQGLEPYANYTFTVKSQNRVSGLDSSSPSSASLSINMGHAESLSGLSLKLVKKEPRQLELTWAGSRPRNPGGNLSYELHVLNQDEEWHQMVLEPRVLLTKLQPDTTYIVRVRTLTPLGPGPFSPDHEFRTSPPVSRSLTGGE
Protocol: as §1

Measured: binding result

B1: mouse anti-EphA4 monoclonal antibody (antibody A) (antibody, mouse IgG1, kappa, V domains shown)
VH: QVQLKQSGPSLVQPSQSLSITCTVSGFSLTRYGVHWVRQSPGKGLEWLGVIWRGGSTDYNAAFMSRLSITKDNSKSQVFFKMNSLQADDTAIYYCAKESLFGVYYDYGYYSMDYWGQGTSVTVSS
VL: DIQMTQSPSSLSASLGERVSLTCRASQEISGYLSWLQQKPDGTIKRLIYAASTLDSGVPKRFSGSRSGSDYSLTISSLESEDFADYYCLQYASYPLTFGAGTKLELKR
notes: purified from hybridoma supernatant
no binding (tested: 10 µg/mL): all assays above
